Experimental data: paper PMC11260466, “Binding of the TRF2 iDDR motif to RAD50 highlights a convergent evolutionary strategy to inactivate MRN at telomeres”

Target: HsRAD50-head (Homo sapiens, UniProt Q92878;Q92878 1-200;1113-1312)
Assay: EMSA; Mg-ATP; EMSA: 20 mM Bis-Tris propane pH 8.0, 200 mM NaCl, 0.5 mM TCEP, Mg-ATP added to RAD50, 500 nM DNA duplex; 5% polyacrylamide, 0.5x TBE, 4 C gel run (binding temperature not stated)
Details: protein: recombinant; tags: C-terminal 3C site + 2xStrep-II on the 1-200 fragment; chain copies: 2;2; label: 5'-carboxyfluorescein (F) on strand 1; blunt ends; as printed S2 is 47 nt and lacks the G opposite C21 of S1 (1-nt bulge, possibly a misprint)

Sequence of HsRAD50-head (Q92878 1-200, chain 1 of 2): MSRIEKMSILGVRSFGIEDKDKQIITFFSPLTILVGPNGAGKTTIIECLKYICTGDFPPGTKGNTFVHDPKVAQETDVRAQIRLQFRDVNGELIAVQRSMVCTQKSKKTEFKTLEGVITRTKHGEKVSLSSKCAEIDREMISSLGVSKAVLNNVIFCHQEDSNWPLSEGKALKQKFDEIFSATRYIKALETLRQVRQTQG
Sequence of HsRAD50-head (Q92878 1113-1312, chain 2 of 2): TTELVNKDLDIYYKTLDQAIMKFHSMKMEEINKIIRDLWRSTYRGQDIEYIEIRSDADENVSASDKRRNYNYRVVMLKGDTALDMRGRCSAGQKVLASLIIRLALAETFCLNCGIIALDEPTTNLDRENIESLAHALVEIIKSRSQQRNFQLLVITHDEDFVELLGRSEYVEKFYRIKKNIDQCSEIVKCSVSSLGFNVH

B1: 48-mer DNA duplex (dsDNA)
DNA 1: TAGTGCTGTAGGAGAATATACGGGCTGCTCGTGTTGACAAGTACTGAT
DNA 2: ATCAGTACTTGTCAACACGAGCAGCCCTATATTCTCCTACAGCACTA
- binding result: binds
